The target in assay [1] is E. coli type I Zorya ZorA, wild type (EcZorA) (E. coli). Kind of assay: cryo-EM structure.
The target of assay [2] is E. coli type I Zorya ZorB, wild type (EcZorB) (E. coli). In words: cryo-EM structure.

In general, stoichiometry N refers to a count of units in the complex or per binding partner. Regarding “E. coli type I Zorya ZorA, wild type (EcZorA) (natural protein)”, the stoichiometry N in assay [1] came to 5.
Take “E. coli type I Zorya ZorB, wild type (EcZorB) (natural protein)”: the stoichiometry N in assay [2] is 2.

These data come from publication doi:10.1101/2023.12.18.572097.
